From patent US20260103689 come the findings set out here.

For series [1], the system named is SB100X Q124C transposase Q124C (synthetic construct). Put plainly: cell_activity. Conditions: HepG2 colony-forming transposition; hyperactive at 500 and 2500 ng plasmid.
Series [2] relates to SB100X Sleeping Beauty transposase (synthetic construct). Put plainly: cell_activity. The following applies: HepG2 colony-forming transposition; integrates at TA.

In series [1], “SB transposon pT2/Puro (puro-tagged, terminal inverted repeats)” had a transposition activity (colony formation, fold vs SB100X) (fold vs SB100X) of 2. This substance returned a transposition activity (colony formation, fold vs SB100X) (fold (reference)) in series [2] of 1.
